Results: patent US11198713B2, “Agents modulating beta-catenin functions and methods thereof” (FOG PHARMACEUTICALS, INC., priority 2017, dated 2021)
Numbered stars: 1 amine (or outer) side, 2 acyl side, 3 side chain; on linkers, the order of the positions; unused ones are H or OH. Bridge positions count the residues as written; N and C are the ends. Square brackets hold non-standard residues; d marks the D form. Primed or numbered codes have the meaning given here. Peptide text beside a SMILES is read from it. * marks the point of attachment. MB = Monomer B = PyrS, Alloc-pyrrolidine stapling residue (allyl carbamate on pyrrolidine N); MB(12) = Monomer B (PyrS), pyrrolidine stapling residue with N-allyl carbamate; MC(3) = Monomer C (PyrR), pyrrolidine stapling residue with N-allyl carbamate; MD = Monomer D = SgN, acyclic Alloc-amine olefin stapling residue; R6 = (R)-2-(5-hexenyl)alanine, C=CCCCC[C@@](C)(N[*:1])C(=O)[*:2]; S6 = (S)-2-(5-hexenyl)alanine, C=CCCCC[C@](C)(N[*:1])C(=O)[*:2]; MG = Monomer G = RdN, acyclic alkyl-N(Alloc) stapling residue; MC = Monomer C = PyrR, Alloc-pyrrolidine stapling residue; MA = Monomer A (Az), N-Alloc azetidine stapling residue; S7 = C[C@@](CCCCCC=[*:3])(N[*:1])C(=O)[*:2]; R8 = C=CCCCCCC[C@@](C)(N)C(=O)O; S8 = C=CCCCCCC[C@](C)(N)C(=O)O; R5 = C=CCCC[C@@](C)(N)C(=O)O; MB(7) = not defined here; Nle = CCCC[C@H](N)C(=O)O; Hex = hexyl, CCCCCC*; Octyl = CCCCCCCC*; βAla = NCCC(=O)O

B1: FP0776a (peptide)
peptide: Ac-PQ[R5]ILD[MG]HVRRVWR-NH2
modifications: staple 3-7; also: amino staple (-N(R')-), from carbamate staple by metathesis then Pd(0) CO2 extrusion
notes: also called FP-0776 (amino staple)
B2: FP0736a (peptide)
peptide: Ac-PQ[S6]ILD[MA]HVRRVWR-NH2
modifications: staple 3-7; also: amino staple: CO2 extruded from carbamate staple with Pd(PPh3)4
notes: also called FP-0736 (amino staple)
B3: FP0738a (peptide)
peptide: Ac-PQ[S7]ILD[MA]HVRRVWR-NH2
modifications: staple 3-7; also: amino staple: CO2 extruded from carbamate staple with Pd(PPh3)4
notes: also called FP-0738 (amino staple); S7/Az
B4: FP0745a (peptide)
peptide: Ac-PQ[MC]ILD[R6]HVRRVWR-NH2
modifications: staple 3-7; also: amino staple: CO2 extruded from carbamate staple with Pd(PPh3)4
notes: also called FP-0745 (amino staple); PR/R6
B5: FP0735a (peptide)
peptide: Ac-PQ[R6]ILD[MA]HVRRVWR-NH2
modifications: staple 3-7; also: amino staple: CO2 extruded from carbamate staple with Pd(PPh3)4
notes: also called FP-0735 (amino staple)
B6: FP0763a (peptide)
peptide: Ac-PQ[S7]ILD[MB(7)]HVRRVWR-NH2
modifications: staple 3-7; reading uncertain; also: amino staple: CO2 extruded from carbamate staple with Pd(PPh3)4
notes: also called FP-0763 (amino staple)
B7: FP0767a (peptide)
peptide: Ac-PQ[R6]ILD[MC]HVRRVWR-NH2
modifications: staple 3-7; also: amino staple (-N(R')-), from carbamate staple by metathesis then Pd(0) CO2 extrusion
notes: also called FP-0767 (amino staple)
B8: FP0725a (peptide)
peptide: Ac-PQ[MA]ILD[R6]HVRRVWR-NH2
modifications: staple 3-7; also: amino staple: CO2 extruded from MA carbamate staple with Pd(PPh3)4
notes: also called FP-0725 (amino staple)

The molecules below were run against T1, full-length beta-catenin (UniProt P35222 2-781, limits assumed) (assay: competition FP; amino staple (acyclic)). Settings: not given.
T1 construct: mature; also called full-length ß-Catenin; β-catenin
T1 sequence (looked up): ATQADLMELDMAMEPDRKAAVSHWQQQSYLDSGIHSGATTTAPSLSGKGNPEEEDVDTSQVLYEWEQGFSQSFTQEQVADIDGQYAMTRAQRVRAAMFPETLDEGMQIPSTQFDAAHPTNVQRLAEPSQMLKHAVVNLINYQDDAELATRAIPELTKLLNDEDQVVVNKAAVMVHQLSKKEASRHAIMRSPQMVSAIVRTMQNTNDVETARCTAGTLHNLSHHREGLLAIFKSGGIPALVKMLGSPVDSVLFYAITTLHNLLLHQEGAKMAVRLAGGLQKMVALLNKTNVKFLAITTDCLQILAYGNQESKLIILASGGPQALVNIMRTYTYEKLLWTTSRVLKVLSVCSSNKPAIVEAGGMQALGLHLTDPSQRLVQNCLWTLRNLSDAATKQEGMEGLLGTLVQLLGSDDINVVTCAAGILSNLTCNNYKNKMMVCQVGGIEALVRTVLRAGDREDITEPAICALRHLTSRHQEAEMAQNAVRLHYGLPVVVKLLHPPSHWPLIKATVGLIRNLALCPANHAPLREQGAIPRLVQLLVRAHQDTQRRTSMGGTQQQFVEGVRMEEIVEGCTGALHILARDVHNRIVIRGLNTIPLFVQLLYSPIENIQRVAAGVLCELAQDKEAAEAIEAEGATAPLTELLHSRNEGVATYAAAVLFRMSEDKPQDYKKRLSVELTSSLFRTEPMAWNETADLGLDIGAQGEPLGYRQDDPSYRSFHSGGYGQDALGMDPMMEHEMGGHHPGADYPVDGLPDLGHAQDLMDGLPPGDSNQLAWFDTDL
Experimental: (§1) In some embodiments, a competition fluorescence polarization assay is used to assess binding of provided compounds to beta-catenin. In an exemplary procedure, solutions of provided compounds, e.g., provided stapled peptides, were prepared in a buffer (e.g., 50 mM Tris pH 8.0, 250 mM NaCl, 2% glycerol, 0.5 mM EDTA, 0.02% w/v sodium azide) using a 3-fold serial dilution from 5 µM. Probe solution (15 nM full-length ß-Catenin, 20 nM FITC labeled peptide in buffer) was prepared and incubated for a period of time, e.g., 5 minutes, and the a volume, e.g., 40 µL per well plated in suitable plate, e.g., a black polystyrene 384-well plate (Corning). Equal volume of the serial diluted peptide was added to the plate and incubated protected from light for 15 minutes prior to read. Reads were performed on a Spectramax M5 (Molecular Devices) in duplicate. Suitable probe was FITC-PEG1-PQ-S5-ILD-S5-HVRRVWR (SEQ ID NO: 1) (hydrocarbon staple formed by two S5 via olefin metathesis) and/or FITC-bA-PQ-S5-ILD-S5-HVRRVWR (SEQ ID NO: 3) (hydrocarbon staple formed by two S5 via olefin metathesis). […] Another peptide, FPO217c (Ac-AR_8ILDAHIM$B5$RVW (SEQ ID NO: 280), with N-terminal proline removed and valine replaced with isoleucine compared to FP0025c) was prepared.

Molecule	EC50 [nM]
B1	580

Each molecule was assayed against T1, full-length beta-catenin (assay: competition FP, grade of FP EC50 (++: 100-500 nM)). Settings: not given.
Procedure, shortened: (§2)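 Compound 3-fold serially diluted from 5 µM in Tris pH 8.0, 250 mM NaCl buffer, added to premixed 15 nM full-length β-catenin and 20 nM FITC-labelled stapled axin-site peptide probe. Incubated 15 min in the dark, polarization read in duplicate.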

Molecule	FP EC50 [nM]
B2	100 to 500
B3	100 to 500
B4	100 to 500
Ac-A[R8]ILDAHI[MD]RVW-NH2 (staple 2-9) [FP0338c]	100 to 500

Each molecule was assayed against T1, full-length beta-catenin (assay: competition FP, grade of FP EC50 (+: 500-5000 nM)). Settings: not given.
Procedure, shortened: as §2

Molecule	FP EC50 [nM]
B5	500 to 5000
B6	500 to 5000
B7	500 to 5000
B8	500 to 5000
B1	500 to 5000

These molecules were tested against T1, full-length beta-catenin (assay: competition FP; amino staple (cyclic)). Settings: not given.
Experimental: as §1

Molecule	EC50 [nM]
B5	2360
B2	470
B6	1110
B3	200
B7	700
B4	210
B8	580

The molecules below were run against T2, biotinylated beta-catenin (UniProt P35222 134-665, limits assumed, biotinylated (site not stated)) (assay: Table 3 'Binding Kd (nM)'; method not stated there (SPR in Example 2)). Settings: not given.
T2 construct: also called beta-catenin (SPR); armadillo domain of β-catenin
T2 sequence (looked up): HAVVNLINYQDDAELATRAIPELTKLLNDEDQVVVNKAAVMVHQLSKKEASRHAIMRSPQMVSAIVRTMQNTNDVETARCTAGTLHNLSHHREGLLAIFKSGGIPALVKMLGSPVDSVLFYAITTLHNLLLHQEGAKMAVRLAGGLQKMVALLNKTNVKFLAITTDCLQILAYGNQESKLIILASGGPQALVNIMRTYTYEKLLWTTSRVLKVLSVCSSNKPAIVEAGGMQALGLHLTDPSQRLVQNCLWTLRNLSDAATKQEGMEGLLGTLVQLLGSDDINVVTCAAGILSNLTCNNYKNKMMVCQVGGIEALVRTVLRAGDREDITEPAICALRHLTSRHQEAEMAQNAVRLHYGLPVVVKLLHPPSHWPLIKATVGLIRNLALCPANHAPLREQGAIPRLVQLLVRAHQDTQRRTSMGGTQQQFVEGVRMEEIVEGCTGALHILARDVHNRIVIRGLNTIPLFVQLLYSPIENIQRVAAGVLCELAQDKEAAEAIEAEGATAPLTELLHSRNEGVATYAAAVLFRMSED
Experimental: (§3) Additionally or alternatively, binding to beta-catenin may be measured by Surface Plasmon Resonance. In an exemplary assay, approximately 6 nmol dried peptide diluted in buffer (50 mM Tris pH 8.0, 300 mM NaCl, 2% glycerol, 0.5 mM TCEP, 0.5 mM EDTA, 0.005% Tween-20, 1 mg/mL CM Dextran, 0.02% w/v sodium azide) was assayed on a Biacore X100 using the Biacore Biotin CAPture Kit (GE Healthcare) and biotinylated beta-catenin. Results were analyzed using the Biacore X100 Evaluation Software.

Molecule	Kd [nM]
AXILDAHIXRVW (not fully specified; Ac-A-R4-I-L-D-A-H-I-MH-R-V-W-NH2; carbamate staple R4/MH) [FP0509c]	3
Ac-A[R8]ILDAHI[MD]RVW-NH2 (staple 2-9) [FP0338c]	10

These molecules were tested against T1, full-length beta-catenin (assay: competition FP, grade of FP EC50 (+++: <=100 nM)). Settings: not given.
Procedure, shortened: as §2

Molecule	FP EC50 [nM]
AXILDAHIXRVW (not fully specified; Ac-A-R4-I-L-D-A-H-I-MH-R-V-W-NH2; carbamate staple R4/MH) [FP0509c]	≤ 100
H-[βAla]A[R8]ILDAHI[MB]RVW-NH2 (staple 3-10) [FP0217c_bAfree]	≤ 100

These molecules were tested against T2, biotinylated beta-catenin (assay: SPR (Biacore, biotinylated beta-catenin)). Settings: not given.
Experimental: as §3

Molecule	Kd [nM]
AXILDAHIXRVW (not fully specified; Ac-A-R4-I-L-D-A-H-I-MH-R-V-W-NH2; carbamate staple R4/MH) [FP0509c]	3
H-[βAla]A[R8]ILDAHI[MB]RVW-NH2 (staple 3-10) [FP0217c_bAfree]	9

What follows are molecules tested on TCF/LEF Luciferase reporter HEK293 cell lines (assay: TCF/LEF reporter assay). Settings: Table 2.
Format: cell-based
Experimental: FIG. 2. […] FIG. 2 depicts exemplary data from TCF/LEF reporter assays. Y-axes illustrate luminescence, and X-axes illustrate concentrations of peptides. […] TCF/LEF Luciferase reporter HEK293 cell lines (BPS Bioscience) were treated with dilution series of FP0025c and FP00217c Isomer 2 for 18 hours. 300 ng/mL of Wnt3a (Peprotech) was added to the cells for the final 6 hours of incubation. Luciferase activity was measured using Bright-Glo Luciferase Assay (Promega) according to manufacturer's protocol.
In some embodiments, a provided assay is a TCF/LEF reporter assay. In some embodiments, in an exemplary such assay, TCF/LEF Luciferase reporter HEK293 cell lines (BPS Bioscience) were treated with dilution series of provided peptides for 18 hours. 300 ng/mL of Wnt3a (Peprotech) was added to the cells for the final 6 hours of incubation. Luciferase activity was measured using Bright-Glo Luciferase Assay (Promega) according to manufacturer's protocol. […] Applicant also notes that teachings of the present disclosure are not restricted to a particular mechanism of action of described agents.

Molecule	TCF/LEF Reporter Inhibition at 10 μM [%]
0ct-P-A-R8-I-L-D-A-H-V-MB-R-V-W-1NH2 (Octyl-PA[R8]ILDAHV[MB(12)]RVW-NH2; staple 3-10) [FP0324c]	51
CC[C@H](C)[C@H](NC(=O)[C@H](CO)NC(=O)[C@H](C)NC(=O)[C@@H]1CCCN1C(C)=O)C(=O)N[C@@H](CC(C)C)C(=O)N[C@@H](CC(=O)O)C(=O)N[C@@H](C)C(=O)N[C@@H](Cc1c[nH]cn1)C(=O)N[C@H](C(=O)N[C@@H](CCC(N)=O)C(=O)N[C@@H](CCCNC(=N)N)C(=O)N[C@H](C(=O)N[C@@H](Cc1c[nH]c2ccccc12)C(N)=O)C(C)C)C(C)C [FP0098, Ac-P-A-S-I-L-D-A-H-V-Q-R-V-W-NH2] (Ac-PASILDAHVQRVW-NH2)	18
CCCC[C@H](NC(=O)[C@@H](NC(=O)[C@H](CCCNC(=N)N)NC(=O)[C@H](CCC(N)=O)NC(=O)[C@@H](NC(=O)[C@H](Cc1c[nH]cn1)NC(=O)[C@H](CCC(=O)O)NC(=O)[C@H](CC(=O)O)NC(=O)[C@H](CC(C)C)NC(=O)[C@@H](NC(=O)[C@H](CO)NC(=O)[C@H](CCC(=O)O)NC(=O)[C@@H]1CCCN1C(C)=O)[C@@H](C)CC)C(C)C)C(C)C)C(=O)N[C@@H](CCCCN)C(N)=O [FP0110, Ac-P-E-S-I-L-D-E-H-V-Q-R-V-nL-K-NH2] (Ac-PESILDEHVQRV[Nle]K-NH2)	19
Ac-P-A-MC-I-L-D-A-H-V-S8-R-V-W-NH2 (Ac-PA[MC(3)]ILDAHV[S8]RVW-NH2; staple 3-10) [FP0099]	38
Hex-P-A-R8-I-L-D-A-H-V-MB-R-V-W-NH2 (Hex-PA[R8]ILDAHV[MB(12)]RVW-NH2; staple 3-10) [FP0325c]	73
